Results as given in the array DNA melting data of Ke et al..

Assay: melting temperature; melt of duplexes
Details: sodium 0.0675 M; strand 1 µM

## CGACGTGCCCCATGTGCTG+CAGCACATTCTGCACGTCG ((((((((...((((((((+))))))))...))))))))
  Tm: 46.9 °C

## CGACGTGCCCCATGTGCTG+CAGCACATTGAGCACGTCG ((((((((.(.((((((((+)))))))).).))))))))
  Tm: 50.1 °C

## CGACGTGCCCCATGTGCTG+CAGCACATTGCGCACGTCG ((((((((.(.((((((((+)))))))).).))))))))
  Tm: 48.2 °C

## CGACGTGCCCCATGTGCTG+CAGCACATTTCGCACGTCG ((((((((...((((((((+))))))))...))))))))
  Tm: 46 °C

## CGACGTGCCCCATGTGCTG+CAGCACATTTTGCACGTCG ((((((((...((((((((+))))))))...))))))))
  Tm: 46.6 °C

## CGACGTGCCCGATGTGCTG+CAGCACATAAAGCACGTCG ((((((((...((((((((+))))))))...))))))))
  Tm: 49.8 °C

## CGACGTGCCCGATGTGCTG+CAGCACATAAGGCACGTCG (((((((((..((((((((+))))))))..)))))))))
  Tm: 54.5 °C

## CGACGTGCCCGATGTGCTG+CAGCACATAATGCACGTCG ((((((((...((((((((+))))))))...))))))))
  Tm: 48.1 °C

## CGACGTGCCCGATGTGCTG+CAGCACATACCGCACGTCG ((((((((...((((((((+))))))))...))))))))
  Tm: 47.7 °C

## CGACGTGCCCGATGTGCTG+CAGCACATACTGCACGTCG ((((((((...((((((((+))))))))...))))))))
  Tm: 48.7 °C

## CGACGTGCCCGATGTGCTG+CAGCACATAGGGCACGTCG ((((((((((.((((((((+)))))))).))))))))))
  Tm: 61.5 °C

## CGACGTGCCCGATGTGCTG+CAGCACATAGTGCACGTCG ((((((((.(.((((((((+)))))))).).))))))))
  Tm: 48 °C

## CGACGTGCCCGATGTGCTG+CAGCACATATCGCACGTCG ((((((((...((((((((+))))))))...))))))))
  Tm: 47.2 °C

## CGACGTGCCCGATGTGCTG+CAGCACATATGGCACGTCG (((((((((..((((((((+))))))))..)))))))))
  Tm: 54 °C

## CGACGTGCCCGATGTGCTG+CAGCACATCAAGCACGTCG ((((((((..(((((((((+)))))))))..))))))))
  Tm: 52.8 °C

## CGACGTGCCCGATGTGCTG+CAGCACATCGGGCACGTCG (((((((((((((((((((+)))))))))))))))))))
  Tm: 68.2 °C

## CGACGTGCCCGATGTGCTG+CAGCACATCTAGCACGTCG ((((((((..(((((((((+)))))))))..))))))))
  Tm: 52.9 °C

## CGACGTGCCCGATGTGCTG+CAGCACATCTCGCACGTCG ((((((((..(((((((((+)))))))))..))))))))
  Tm: 51.6 °C

## CGACGTGCCCGATGTGCTG+CAGCACATCTGGCACGTCG (((((((((.(((((((((+))))))))).)))))))))
  Tm: 59.1 °C

## CGACGTGCCCGATGTGCTG+CAGCACATGATGCACGTCG ((((((((...((((((((+))))))))...))))))))
  Tm: 48.9 °C

## CGACGTGCCCGATGTGCTG+CAGCACATGCCGCACGTCG ((((((((...((((((((+))))))))...))))))))
  Tm: 48.1 °C

## CGACGTGCCCGATGTGCTG+CAGCACATGGCGCACGTCG ((((((((.(.((((((((+)))))))).).))))))))
  Tm: 53.3 °C

## CGACGTGCCCGATGTGCTG+CAGCACATGTTGCACGTCG ((((((((...((((((((+))))))))...))))))))
  Tm: 48.1 °C

## CGACGTGCCCGATGTGCTG+CAGCACATTAAGCACGTCG ((((((((...((((((((+))))))))...))))))))
  Tm: 49.5 °C

## CGACGTGCCCGATGTGCTG+CAGCACATTATGCACGTCG ((((((((...((((((((+))))))))...))))))))
  Tm: 48.4 °C

## CGACGTGCCCGATGTGCTG+CAGCACATTGAGCACGTCG ((((((((.(.((((((((+)))))))).).))))))))
  Tm: 53.6 °C

## CGACGTGCCCGATGTGCTG+CAGCACATTGCGCACGTCG ((((((((.(.((((((((+)))))))).).))))))))
  Tm: 51.2 °C

## CGACGTGCCCGATGTGCTG+CAGCACATTGGGCACGTCG ((((((((((.((((((((+)))))))).))))))))))
  Tm: 62.4 °C

## CGACGTGCCCGATGTGCTG+CAGCACATTTCGCACGTCG ((((((((...((((((((+))))))))...))))))))
  Tm: 47.6 °C

## CGACGTGCCCTATGTGCTG+CAGCACATAAAGCACGTCG ((((((((..(((((((((+)))))))))..))))))))
  Tm: 50 °C

## CGACGTGCCCTATGTGCTG+CAGCACATACAGCACGTCG ((((((((..(((((((((+)))))))))..))))))))
  Tm: 48.8 °C

## CGACGTGCCCTATGTGCTG+CAGCACATACCGCACGTCG ((((((((..(((((((((+)))))))))..))))))))
  Tm: 47.4 °C

## CGACGTGCCCTATGTGCTG+CAGCACATACGGCACGTCG (((((((((.(((((((((+))))))))).)))))))))
  Tm: 53.5 °C

## CGACGTGCCCTATGTGCTG+CAGCACATATAGCACGTCG ((((((((..(((((((((+)))))))))..))))))))
  Tm: 49.6 °C

## CGACGTGCCCTATGTGCTG+CAGCACATATGGCACGTCG (((((((((.(((((((((+))))))))).)))))))))
  Tm: 55.8 °C

## CGACGTGCCCTATGTGCTG+CAGCACATATTGCACGTCG ((((((((..(((((((((+)))))))))..))))))))
  Tm: 48.9 °C

## CGACGTGCCCTATGTGCTG+CAGCACATCAGGCACGTCG (((((((((..((((((((+))))))))..)))))))))
  Tm: 53.8 °C

## CGACGTGCCCTATGTGCTG+CAGCACATCCAGCACGTCG ((((((((...((((((((+))))))))...))))))))
  Tm: 47.7 °C

## CGACGTGCCCTATGTGCTG+CAGCACATCGCGCACGTCG ((((((((.(.((((((((+)))))))).).))))))))
  Tm: 48.1 °C

## CGACGTGCCCTATGTGCTG+CAGCACATCTAGCACGTCG ((((((((...((((((((+))))))))...))))))))
  Tm: 48 °C

## CGACGTGCCCTATGTGCTG+CAGCACATCTTGCACGTCG ((((((((...((((((((+))))))))...))))))))
  Tm: 47.3 °C

## CGACGTGCCCTATGTGCTG+CAGCACATGATGCACGTCG ((((((((...((((((((+))))))))...))))))))
  Tm: 48.6 °C

## CGACGTGCCCTATGTGCTG+CAGCACATTAAGCACGTCG ((((((((...((((((((+))))))))...))))))))
  Tm: 48.7 °C

## CGACGTGCCCTATGTGCTG+CAGCACATTCAGCACGTCG ((((((((...((((((((+))))))))...))))))))
  Tm: 48.8 °C

## CGACGTGCCCTATGTGCTG+CAGCACATTGTGCACGTCG ((((((((.(.((((((((+)))))))).).))))))))
  Tm: 47.8 °C

## CGACGTGCCCTATGTGCTG+CAGCACATTTGGCACGTCG (((((((((..((((((((+))))))))..)))))))))
  Tm: 54.1 °C

## CGACGTGCCGAATGTGCTG+CAGCACATAAGGCACGTCG (((((((((..((((((((+))))))))..)))))))))
  Tm: 58 °C

## CGACGTGCCGAATGTGCTG+CAGCACATACAGCACGTCG ((((((((.(.((((((((+)))))))).).))))))))
  Tm: 50.4 °C

## CGACGTGCCGAATGTGCTG+CAGCACATACCGCACGTCG ((((((((.(.((((((((+)))))))).).))))))))
  Tm: 49.5 °C

## CGACGTGCCGAATGTGCTG+CAGCACATACGGCACGTCG ((((((((((.((((((((+)))))))).))))))))))
  Tm: 60.1 °C

## CGACGTGCCGAATGTGCTG+CAGCACATAGTGCACGTCG ((((((((...((((((((+))))))))...))))))))
  Tm: 45.9 °C

## CGACGTGCCGAATGTGCTG+CAGCACATCAGGCACGTCG (((((((((..((((((((+))))))))..)))))))))
  Tm: 55.4 °C
